In the DeepSol protein solubility set:

Assay: soluble on expression in E. coli; label from the status in PepcDB or PDB records

Soluble on expression in E. coli, soluble:
MASENNGSRSDSESITAPKADSTVVEPRKIALITGITGQDGSYLTEFLLGKGYEVHGLIRRSSNFNTQRINHIYIDPHNVNKALMKLHYADLTDASSLRRWIDVIKPDEVYNLAAQSHVAVSFEIPDYTADVVATGALRLLEAVRSHTIDSGRTVKYYQAGSSEMFGSTPPPQSETTPFHPRSPYAASKCAAHWYTVNYREAYGLFACNGILFNHESPRRGENFVTRKITRALGRIKVGLQTKLFLGNLQASRDWGFAGDYVEAMWLMLQQEKPDDYVVATEEGHTVEEFLDVSFGYLGLNWKDYVEIDQRYFRPAEVDNLQGDASKAKEVLGWKPQVGFEKLVKMMVDEDLELAKREKVLVDAGYMDAKQQPLEHHHHHH
MSLDYHKQFIGELSQVSYHIIGYGSYYEEALIKYLGESIERYATVIAGDLLSDRIVYASYNELKLLHKVMPLEYLQVFTQEQIALSCDLQMMMCDKMVTENDVLGWVKCPMFFEDAEMYVPAQMLCVGYKTNETVGERRIIPGFSTGTASHKTLEAAMCNSLIEYIQIDSMMLSWYTKKPCPKIIVDDPDIEVILEEARLGKDSLYDIIPIDMTVGEDNPLYTFGIILKNKYDEGPYLLFGVQAGLDPKHALLRGIMEASAISYSYYYNLLYQKASLANIECEEPLFLDLDSNVFYYAHPKDQDHKWKAFEPLISGEVLLSDLEDHSGKDKKEDLKTLLAYAKKVSPNAVFLDITPPEALEKGWYVTRVLMPELLEMCIPAFPFANHPRMRQFGGVTNAFVHPMPEGHHHHHH
SSQPDPTPEQLNKSSQFTGVMGNLRCLYDNHFVEGTNVRSTGQLLQHDLIFPIKDLKLKNYDSVKTEFNSKDLATKYKNKDVDIFGSNYYYNCYYSEGNSCKNAKKTCMYGGVTEHHRNQIEGKFPNITVKVYEDNENILSFDITTNKKQVTVQELDCKTRKILVSRKNLYEFNNSPYETGYIKFIESSGDSFWYDMMPAPGAIFDQSKYLMLYNDNKTVSSSAIAIEVHLTKK
NSRVSDLDLELLFQDRAARLGKSISRLIVVASLIDKPTNLGGLCRTCEVFGASVLVVGSLQCISDKQFQHLSVSAEQWLPLVEVKPPQLIDYLQQKKTEGYTIIGVEQTAKSLDLTQYCFPEKSLLLLGNEREGIPANLIQQLDVCVEIPQQGIIRSLNVHVSGALLIWEYTRQQLLSHGDTKP

Soluble on expression in E. coli, not soluble:
MGSDKIHHHHHHMNLKNTKAGFLLSAEHEKLPIAELNALIDIFSLEGNLNCFKNYVILDSSISEEIIKKMVKRGGYTNEGHVIFSESPIINQNVDETLENFFKSSETLDFPVERDETFAVRVLKLEKESPFNSMEIERKLGGIIKKKTSAQVSLKNPSKTVKVVISNDKMYTGIVIEKRDVEYFQNNRPHLRAYFHPGCIMPKLARCLVNLSRVKEGEIVLDPFCGTGGFLIEAGFLGCKLIGSDIDEQMVNGALLNLNTYDLSKQVISIKENDAKNVSKYLEALKIEKIDGIVTDPPYGISTSKKGDMLEIFEKIVDVLKDNDYLVFAAPNKMELDLNLVEFYEMRVHKSLTRYIHVYRKN
MPETELHVIFDQPNEVFFPGQPISGRVVLSTTKEKYKARAVNIKILGLAHTSWTDYESVRRVDADGKVSHHRQSVHYSANVNYLDYTLLLWACKDGSNELAAGEYAWSFSYNLPLNVPPSFEGKYGYLRYSVTAEVDRPWRLDKAKKRCITVSPLIDLNVIPHALTQINDQASENLGCCCFKKGYLELRVNIPKTGFVPGETVPMNIHILNHSSVPVTEVKAKIIQQCKFIAYRNGTTFHYGGGYETGMSGQLQETKHDTKTVVKHGQEMTVAPRNEHKFAMELRLPSVTPTINQFSPVITVEYIVQFHVETSSTFGSDVDCEMGILIGTVPIRQFLPPAYYPQDPNLPQILPTPIGGGVVAPPPGYGFLPMADGSEKGAGDASYPAASMPMYPIPNVPYPSKDDGTVVIPSAPPLSYEESMFGQDGTELNTDENEQPFAPKYPVFNNLPVYNPTAPPPE
MKISTQSEVEGVLIKALSEGKGIQHVELALKDLPAFDRKRARTTAITEVLTAASVAQQEAFEQSPSVEGKKWKHSGGKGIEPRSSHIELSGKVVQINETFTIPGSGELAKYPRDTDLSASERIHCHCALGPAVNEEIL
MPQNAQEYYEKVKKFTKKKDGAIRAIEDTKKAMEKKAATKSAKAGRKLQASRKKHWYDRFRWFVSSDGFLVVGGRDADTNEEIFKKYMEKRDIVFHTQTPGAPLTVVKTGGKEVPDSTLQEVSQFAVSYSSLWKAGQFSGDCYWIKSEQVTKTPESGEYLKKGAFVIRGERNYFKDVPLGIAVGLELKGETRIIGGPASAVRKHGDYILEIIPGKFNQNDISKKIYRIYADELNDPRFVKQIASPDQIAMMIPAGESDLRNQKPEKKGQGFGPEGEGYETPEMEAGFEDLKGEIDEESGENAGEEFADEEFAEEIGEGSEVKVKAEAREGNEEIIEIRGVKKE
